For one test, the target named is CipA (hexahistidine-tagged, lacking the N-terminal signal sequence, amino acid residues 19-369) (Acinetobacter baumannii). Put plainly: ELISA; CipA immobilised (5 µg/ml), increasing amounts of complement component (0 to 50 nM in the methods; 0 to 25 nM FI in the legend); dissociation constant approximated by non-linear regression, one-site specific binding model.
Conditions: not given
The substance “Factor I (from UniProt P05156 19-335; P05156 340-583) (enzyme)” showed a dissociation constant Kd of 3 nM.

A further test addresses Factor I (UniProt P05156). Put plainly: ELISA. To be noted: CipA variants coated at 5 ng/µl; FI 10 ng/µl; anti-FI antibody 1:1,000; parent: est. 2.8; read off a plot.
Consider “CipA (hexahistidine-tagged, lacking the N-terminal signal sequence, amino acid residues 19-369) K365A; K366A; K368A; K369A”, for which the response (Absorbance at 490 nm) is 2.7.

For “CipA (hexahistidine-tagged, lacking the N-terminal signal sequence, amino acid residues 19-369) L363del”, the response (Absorbance at 490 nm) was found to be 2.

Consider “CipA (hexahistidine-tagged, lacking the N-terminal signal sequence, amino acid residues 19-369) L363del; V364del”, for which the response (Absorbance at 490 nm) worked out at 2.7.

Consider “CipA (hexahistidine-tagged, lacking the N-terminal signal sequence, amino acid residues 19-369) P367A”, for which the response (Absorbance at 490 nm) came to 2.1.

With “CipA (hexahistidine-tagged, lacking the N-terminal signal sequence, amino acid residues 19-369) P367del”, the response (Absorbance at 490 nm) is 2.

On to “CipA (hexahistidine-tagged, lacking the N-terminal signal sequence, amino acid residues 19-369) V364del”, for which the response (Absorbance at 490 nm) was 1.9.

The same test, now with this note: CipA variants coated at 5 ng/µl; FI 10 ng/µl; anti-FI antibody 1:1,000; parent: est. 3.1; read off a plot.
Consider “CipA (hexahistidine-tagged, lacking the N-terminal signal sequence, amino acid residues 19-369) E360A”, for which the response (Absorbance at 490 nm) was 2.8.

In the case of “CipA (hexahistidine-tagged, lacking the N-terminal signal sequence, amino acid residues 19-369) E360P”, the response (Absorbance at 490 nm) is 0.35.

For the substance “CipA (hexahistidine-tagged, lacking the N-terminal signal sequence, amino acid residues 19-369) E362A”, the response (Absorbance at 490 nm) is 2.9.

For “CipA (hexahistidine-tagged, lacking the N-terminal signal sequence, amino acid residues 19-369) Q361A”, the response (Absorbance at 490 nm) was 3.1.

The record behind these values is article PMC9361855.
